For experiment [1], the target named is KEAP1 (wild-type full-length), His-tagged (human) (UniProt Q14145). In words: AlphaScreen; 38.4 nM FLAG-NRF2, 150 nM His-KEAP1; Repeat 1 (same value as in Table 22).
Experiment [2] shares this target. In words: AlphaScreen; 38.4 nM FLAG-NRF2, 150 nM His-KEAP1 (same value as in Table 22).
The target is the same in experiment [3]. In words: AlphaScreen; mean over 9.6, 19.2 and 38.4 nM NRF2; 150 nM His-KEAP1.
Experiment [4] shares this target. In words: AlphaScreen, all variants on one plate; upper condition (38.4 nM NRF2), KEAP1 150 nM; the reference itself.
Experiment [5] shares this target. In words: AlphaScreen; 76.8 nM FLAG-NRF2, 150 nM His-KEAP1; Rep 2.
Experiment [6] shares this target. In words: AlphaScreen; 19.2 nM FLAG-NRF2, 150 nM His-KEAP1; Repeat 1 (same value as in Table 22).
For experiment [7] the target is unchanged. In words: AlphaScreen; 38.4 nM FLAG-NRF2, 150 nM His-KEAP1; wild type set to 100%.
Experiment [8] shares this target. In words: AlphaScreen; 9.6 nM FLAG-NRF2, 150 nM His-KEAP1 (same value as in Table 22).
Experiment [9] has the same target. In words: AlphaScreen; 9.6 nM FLAG-NRF2, 150 nM His-KEAP1; Repeat 1 (same value as in Table 22).
Experiment [10] has the same target. In words: AlphaScreen; 9.6 nM FLAG-NRF2, 150 nM His-KEAP1; wild type set to 100%.
Experiment [11] has the same target. In words: AlphaScreen, all variants on one plate; optimal condition (19.2 nM NRF2), KEAP1 150 nM; the reference itself.
The target is the same in experiment [12]. In words: AlphaScreen; 19.2 nM FLAG-NRF2, 150 nM His-KEAP1; wild type set to 100%.
Experiment [13] has the same target. In words: AlphaScreen, all variants on one plate; lower condition (9.6 nM NRF2), KEAP1 150 nM; the reference itself.
For experiment [14] the target is unchanged. In words: AlphaScreen; 38.4 nM FLAG-NRF2, 150 nM His-KEAP1; Repeat 2 (same value as in Table 23).
Experiment [15] shares this target. In words: AlphaScreen; mean over 9.6, 19.2 and 38.4 nM NRF2; 150 nM His-KEAP1; against wild-type NRF2 isoform 2 = 100%.
The target is the same in experiment [16]. In words: AlphaScreen; 19.2 nM FLAG-NRF2, 150 nM His-KEAP1; Repeat 1 (same value as in Table 23).
For experiment [17] the target is unchanged. In words: AlphaScreen, all variants on one plate; average of three conditions ± standard deviation, KEAP1 150 nM; relative to NRF2 (WT) isoform 2.
The target is the same in experiment [18]. In words: AlphaScreen; standard deviation of three conditions; against wild-type NRF2 isoform 2.
The target is the same in experiment [19]. In words: AlphaScreen; average of three conditions; against wild-type NRF2 isoform 2.
The target is the same in experiment [20]. In words: AlphaScreen; 19.2 nM FLAG-NRF2, 150 nM His-KEAP1; against wild-type NRF2 isoform 2 = 100%.
Experiment [21] has the same target. In words: AlphaScreen; over 9.6, 19.2 and 38.4 nM NRF2; 150 nM His-KEAP1.
Experiment [22] has the same target. In words: AlphaScreen, all variants on one plate; lower condition (9.6 nM NRF2), KEAP1 150 nM; relative to NRF2 (WT) isoform 2.
For experiment [23] the target is unchanged. In words: AlphaScreen, all variants on one plate; optimal condition (19.2 nM NRF2), KEAP1 150 nM; relative to NRF2 (WT) isoform 2.
For experiment [24] the target is unchanged. In words: AlphaScreen; 9.6 nM FLAG-NRF2, 150 nM His-KEAP1 (same value as in Table 23).
Experiment [25] has the same target. In words: AlphaScreen; 9.6 nM FLAG-NRF2, 150 nM His-KEAP1; Repeat 1 (same value as in Table 23).
The target is the same in experiment [26]. In words: AlphaScreen; mean over 9.6, 19.2 and 38.4 nM NRF2; 150 nM His-KEAP1; against wild-type NRF2 isoform 2.
For experiment [27] the target is unchanged. In words: AlphaScreen; 38.4 nM FLAG-NRF2, 150 nM His-KEAP1; Repeat 1 (same value as in Table 23).

KEAP1 (wild-type full-length), His-tagged (human), sequence (Q14145 2-624 limits assumed, form in doubt): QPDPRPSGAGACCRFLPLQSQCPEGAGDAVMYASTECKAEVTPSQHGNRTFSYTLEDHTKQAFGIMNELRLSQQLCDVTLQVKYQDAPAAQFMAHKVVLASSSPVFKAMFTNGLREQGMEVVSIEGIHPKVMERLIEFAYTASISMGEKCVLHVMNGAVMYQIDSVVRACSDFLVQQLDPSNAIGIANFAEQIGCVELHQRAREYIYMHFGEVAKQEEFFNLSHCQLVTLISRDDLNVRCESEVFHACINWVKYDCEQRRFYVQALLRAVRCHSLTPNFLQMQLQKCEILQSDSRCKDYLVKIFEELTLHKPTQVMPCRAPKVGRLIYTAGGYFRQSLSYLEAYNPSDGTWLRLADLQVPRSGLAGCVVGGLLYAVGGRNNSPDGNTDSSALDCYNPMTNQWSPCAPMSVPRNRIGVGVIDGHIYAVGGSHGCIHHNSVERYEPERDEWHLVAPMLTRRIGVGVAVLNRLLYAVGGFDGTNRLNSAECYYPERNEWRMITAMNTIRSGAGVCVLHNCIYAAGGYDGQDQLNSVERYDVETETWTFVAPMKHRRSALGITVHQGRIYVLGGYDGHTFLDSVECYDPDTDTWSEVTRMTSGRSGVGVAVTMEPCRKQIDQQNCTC

For the substance “NRF2 isoform 2 (wild-type full-length), FLAG-tagged”, the A-counts in experiment [1] worked out at 3470 A-counts; in experiment [5], 3910 A-counts; in experiment [6], 3480 A-counts; in [9], 2310 A-counts. The values for the S/N in experiment [2] and in experiment [8] were 3.4 and 3.7, respectively. In experiment [3], the Average Binding worked out at 100%. In addition, the % Disruption in Binding in experiment [4], in experiment [11] and in experiment [13] was 0% each time. Moreover, the Binding Percentage (%) in experiment [7], in experiment [10] and in [12] was 100% each time.

Consider “NRF2 isoform 2 (E63G/E66G full-length), FLAG-tagged”, for which the A-counts in experiment [14] worked out at 1960 A-counts; in experiment [16] it was 1700 A-counts; in experiment [5], 1900 A-counts; in experiment [25], 1670 A-counts; in experiment [27], 2120 A-counts. Moreover, in experiment [15], the Average Binding was 30.9%. The same substance yielded a % Disruption in Binding (Reported Values) in experiment [17] of 61.7%. In addition, the Reported Value (standard deviation of reduction in binding) in experiment [18] worked out at 10.2%. The substance also yielded a Reported Value (reduction in binding) in [19] of 69.1%. In experiment [20], this substance yielded a Binding Percentage (%) of 19.2%. In experiment [21], this substance yielded a Standard Deviation (of binding percentage) of 10.2%. Further, the figures for the % Disruption in Binding in experiment [22] and in experiment [23] were 63.4% and 59.7%, respectively. The substance further came in with a S/N in [24] of 1.8. Also, in experiment [26], the Avg. Reduction in Binding was 69.1%.

These data come from patent publication US20250352667A1.
